Experimental data taken from paper PMC9618040, “Cryo-EM structures of light-harvesting 2 complexes from Rhodopseudomonas palustris reveal the molecular origin of absorption tuning” (Proceedings of the National Academy of Sciences of the …, 2022).
Each block holds one compound with its values, some of them ahead of it.

Key:
[1] = molecular target: T1, PucA-LH2 (Rhodopseudomonas palustris, UniProt P35101+P35106+Q6N9P5); assay: cryo-EM structure of the complex, […] Å; assay type: binding; details: 9 per complex, between alpha and beta chains; noncovalent
T1 construct: gene pucAA; native nonameric LH2 complex purified in LDAO from a Rps. palustris mutant with only pucBAa; α9β9γ1; alpha Met1 modelled as Cxm; last nine alpha residues untraced

[2] = molecular target: PucA-LH2 α-polypeptide (α-apoprotein encoded by the pucBAa gene pair) (Rhodopseudomonas palustris); assay: cryo-EM structure; single-particle cryo-EM of native LH2 complexes purified from intracytoplasmic membranes of single-pucBA deletion strains, in 0.1% LDAO, 20 mM Tris-Cl pH 8.0; C1 maps with relaxed C9 symmetry; γ encloses six of the nine α/β-heterodimers
[3] = molecular target: PucB-LH2 α-polypeptide (α-apoprotein encoded by the pucBAb gene pair) (Rhodopseudomonas palustris); assay: as above
[4] = molecular target: PucD-LH2 α-polypeptide (α-apoprotein encoded by the pucBAd gene pair) (Rhodopseudomonas palustris); assay: as above
[5] = molecular target: PucE-LH2 α-polypeptide (α-apoprotein encoded by the pucBAe gene pair) (Rhodopseudomonas palustris); assay: as above

T1 sequence (P35101 whole entry): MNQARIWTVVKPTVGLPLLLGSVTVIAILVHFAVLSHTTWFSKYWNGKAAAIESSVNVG
T1 sequence (P35106 2-47 limits assumed): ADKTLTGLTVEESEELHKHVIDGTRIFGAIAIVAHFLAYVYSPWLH
T1 sequence (Q6N9P5 1-97): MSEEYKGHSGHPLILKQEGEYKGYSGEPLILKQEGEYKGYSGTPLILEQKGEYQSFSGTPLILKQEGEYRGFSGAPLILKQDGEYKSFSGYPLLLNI

stoichiometry N [2]: 9
Compound: PucA-LH2 α-polypeptide (α-apoprotein encoded by the pucBAa gene pair) (natural protein)

stoichiometry N [5]: 9
Compound: PucE-LH2 α-polypeptide (α-apoprotein encoded by the pucBAe gene pair) (natural protein)

The remaining lines, values behind:

Compound: CC(C)=CCC/C(C)=C/C=C/C(C)=C/C=C/C(C)=C/C=C/C=C(C)/C=C/C=C(C)/C=C/C=C(\C)CCCC(C)(C)O [rhodopin]
cryo-EM structure of the complex, 2.7 Å [1]: A carotenoid, rhodopin, is sandwiched between α- and β-polypeptides

Compound: PucB-LH2 α-polypeptide (α-apoprotein encoded by the pucBAb gene pair) (natural protein)
stoichiometry N [3]: 9

Compound: PucD-LH2 α-polypeptide (α-apoprotein encoded by the pucBAd gene pair) (natural protein)
stoichiometry N [4]: 9
